Series [1] relates to HeLa Kyoto. Put plainly: solubility in G1/S (NP-40 vs SDS abundance) (log2 ratio); higher = more soluble. The following applies: cell cycle stage: G1/S.
Series [2] relates to HeLa Kyoto. Put plainly: melting temperature (median over replicates), in situ; higher = more thermally stable.
The test system of series [3] is HeLa Kyoto. Put plainly: solubility change mitosis vs G1/S (difference of NP-40 vs SDS log2 ratios) (log2 ratio difference); higher = more soluble in mitosis.
Series [4] has as its system HeLa Kyoto. The series can be described thus: thermal stability score vs G1/S (z-score of summed log2 fold changes over temperatures); higher = more thermally stable than in G1/S.
[5] abbreviates: cell cycle stage: early G1 (4.5 h after nocodazole release).
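Wherever melting temperature (median over replicates), in situ is given: HeLa Kyoto cells synchronized by double thymidine or nocodazole block, proteins quantified by TMT10plex mass spectrometry, three independent biological replicates.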
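Wherever solubility change mitosis vs G1/S (difference of NP-40 vs SDS log2 ratios) is given: synchronized HeLa Kyoto cells (double thymidine block for G1/S, nocodazole release for mitosis), protein amounts in NP-40 versus SDS lysates quantified by mass spectrometry, three biological replicates.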
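Wherever solubility in G1/S (NP-40 vs SDS abundance) is given: HeLa Kyoto cells arrested at G1/S by double thymidine block, proteins quantified by TMT10plex mass spectrometry in mild NP-40 versus SDS extracts, three biological replicates.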
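Wherever thermal stability score vs G1/S (z-score of summed log2 fold changes over temperatures) is given: synchronized HeLa Kyoto cells, proteins quantified by TMT10plex mass spectrometry, three biological replicates, mitosis taken 0.5 h after nocodazole release, G1/S directly after double thymidine block.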

Take “MDNSGKEAEAMALLAEAERKVKNSQSFFSGLFGGSSKIEEACEIYARAANMFKMAKNWSAAGNAFCQAAQLHLQLQSKHDAATCFVDAGNAFKKADPQEAINCLMRAIEIYTDMGRFTIAAKHHISIAEIYETELVDIEKAIAHYEQSADYYKGEESNSSANKCLLKVAGYAALLEQYQKAIDIYEQVGTNAMDSPLLKYSAKDYFFKAALCHFCIDMLNAKLAVQKYEELFPAFSDSRECKLMKKLLEAHEEQNVDSYTESVKEYDSISRLDQWLTTMLLRIKKTIQGDEEDLR [NAPA]”: the “solubility in G1/S (log2)” value with HeLa Kyoto [1] came to 0.324. The melting temperature was determined as 51.7 °C in the series with HeLa Kyoto [2] (cell cycle stage: G1/S) and 52.2 °C in the series on HeLa Kyoto [2] (cell cycle stage: mitosis). Also, the “solubility change mitosis (log2)” value with HeLa Kyoto [3] came out at 0.0471. Besides, the results for the thermal stability score in the series on HeLa Kyoto [4] (setting [5]) and in the series with HeLa Kyoto [4] (cell cycle stage: mitosis) were -0.447 and -0.81, respectively.
Consider “MDPFLVLLHSVSSSLSSSELTELKFLCLGRVGKRKLERVQSGLDLFSMLLEQNDLEPGHTELLRELLASLRRHDLLRRVDDFEAGAAAGAAPGEEDLCAAFNVICDNVGKDWRRLARQLKVSDTKIDSIEDRYPRNLTERVRESLRIWKNTEKENATVAHLVGALRSCQMNLVADLVQEVQQARDLQNRSGAMSPMSWNSDASTSEAS [FADD]”, for which the “solubility in G1/S (log2)” value in the series on HeLa Kyoto [1] is -0.257. For the same sequence, the melting temperature with HeLa Kyoto [2] (cell cycle stage: G1/S) is 52.3 °C; with HeLa Kyoto [2] (cell cycle stage: mitosis), 49.4 °C. Moreover, the “solubility change mitosis (log2)” value in the series on HeLa Kyoto [3] is -0.0735. Moreover, the thermal stability score in the series with HeLa Kyoto [4] (setting [5]) was -0.0741; with HeLa Kyoto [4] (cell cycle stage: mitosis), 1.4.
As for “MDPGDDWLVESLRLYQDFYAFDLSGATRVLEWIDDKGVFVAGYESLKKNEILHLKLPLRLSVKENKGLFPERDFKVRHGGFSDRSIFDLKHVPHTRLLVTSGLPGCYLQVWQVAEDSDVIKAVSTIAVHEKEESLWPRVAVFSTLAPGVLHGARLRSLQVVDLESRKTTYTSDVSDSEELSSLQVLDADTFAFCCASGRLGLVDTRQKWAPLENRSPGPGSGGERWCAEVGSWGQGPGPSIASLGSDGRLCLLDPRDLCHPVSSVQCPVSVPSPDPELLRVTWAPGLKNCLAISGFDGTVQVYDATSWDGTRSQDGTRSQVEPLFTHRGHIFLDGNGMDPAPLVTTHTWHPCRPRTLLSATNDASLHVWDWVDLCAPR [WDR73]”, the “solubility in G1/S (log2)” value with HeLa Kyoto [1] is -0.0335. Besides, the melting temperature in the series with HeLa Kyoto [2] (cell cycle stage: G1/S) stood at 54.8 °C; in the series on HeLa Kyoto [2] (cell cycle stage: mitosis), 54 °C. The “solubility change mitosis (log2)” value in the series with HeLa Kyoto [3] is -0.0847. The thermal stability score in the series with HeLa Kyoto [4] (setting [5]) came out at 0.072; with HeLa Kyoto [4] (cell cycle stage: mitosis), 0.551.
Turning to “MDPRKVNELRAFVKMCKQDPSVLHTEEMRFLREWVESMGGKVPPATQKAKSEENTKEEKPDSKKVEEDLKADEPSSEESDLEIDKEGVIEPDTDAPQEMGDENAEITEEMMDQANDKKVAAIEALNDGELQKAIDLFTDAIKLNPRLAILYAKRASVFVKLQKPNAAIRDCDRAIEINPDSAQPYKWRGKAHRLLGHWEEAAHDLALACKLDYDEDASAMLKEVQPRAQKIAEHRRKYERKREEREIKERIERVKKAREEHERAQREEEARRQSGAQYGSFPGGFPGGMPGNFPGGMPGMGGGMPGMAGMPGLNEILSDPEVLAAMQDPEVMVAFQDVAQNPANMSKYQSNPKVMNLISKLSAKFGGQA [ST13]”, the “solubility in G1/S (log2)” value in the series on HeLa Kyoto [1] came out at 0.813. In addition, the values for the melting temperature in the series on HeLa Kyoto [2] (cell cycle stage: G1/S) and in the series with HeLa Kyoto [2] (cell cycle stage: mitosis) were 51.8 °C and 51.3 °C, respectively. Besides, the “solubility change mitosis (log2)” value with HeLa Kyoto [3] was determined as 0.103. The thermal stability score with HeLa Kyoto [4] (setting [5]) came out at 2.23; in the series on HeLa Kyoto [4] (cell cycle stage: mitosis), 1.79.
Take “MDPSDFPSPFDPLTLPEKPLAGDLPVDMEFGEDLLESQTAPTRGWAPPGPSPSSGALDLLDTPAGLEKDPGVLDGATELLGLGGLLYKAPSPPEVDHGPEGTLAWDAGDQTLEPGPGGQTPEVVPPDPGAGANSCSPEGLLEPLAPDSPITLQSPHIEEEETTSIATARRGSPGQEEELPQGQPQSPNAPPSPSVGETLGDGINSSQTKPGGSSPPAHPSLPGDGLTAKASEKPPERKRSERVRRAEPPKPEVVDSTESIPVSDEDSDAMVDDPNDEDFVPFRPRRSPRMSLRSSVSQRAGRSAVGTKMTCAHCRTPLQKGQTAYQRKGLPQLFCSSSCLTTFSKKPSGKKTCTFCKKEIWNTKDSVVAQTGSGGSFHEFCTSVCLSLYEAQQQRPIPQSGDPADATRCSICQKTGEVLHEVSNGSVVHRLCSDSCFSKFRANKGLKTNCCDQCGAYIYTKTGSPGPELLFHEGQQKRFCNTTCLGAYKKKNTRVYPCVWCKTLCKNFEMLSHVDRNGKTSLFCSLCCTTSYKVKQAGLTGPPRPCSFCRRSLSDPCYYNKVDRTVYQFCSPSCWTKFQRTSPEGGIHLSCHYCHSLFSGKPEVLDWQDQVFQFCCRDCCEDFKRLRGVVSQCEHCRQEKLLHEKLRFSGVEKSFCSEGCVLLYKQDFTKKLGLCCITCTYCSQTCQRGVTEQLDGSTWDFCSEDCKSKYLLWYCKAARCHACKRQGKLLETIHWRGQIRHFCNQQCLLRFYSQQNQPNLDTQSGPESLLNSQSPESKPQTPSQTKVENSNTVRTPEENGNLGKIPVKTRSAPTAPTPPPPPPPATPRKNKAAMCKPLMQNRGVSCKVEMKSKGSQTEEWKPQVIVLPIPVPIFVPVPMHLYCQKVPVPFSMPIPVPVPMFLPTTLESTDKIVETIEELKVKIPSNPLEADILAMAEMIAEAEELDKASSDLCDLVSNQSAEGLLEDCDLFGPARDDVLAMAVKMANVLDEPGQDLEADFPKNPLDINPSVDFLFDCGLVGPEDVSTEQDLPRTMRKGQKRLVLSESCSRDSMSSQPSCTGLNYSYGVNAWKCWVQSKYANGETSKGDELRFGPKPMRIKEDILACSAAELNYGLAQFVREITRPNGERYEPDSIYYLCLGIQQYLLENNRMVNIFTDLYYLTFVQELNKSLSTWQPTLLPNNTVFSRVEEEHLWECKQLGVYSPFVLLNTLMFFNTKFFGLQTAEEHMQLSFTNVVRQSRKCTTPRGTTKVVSIRYYAPVRQRKGRDTGPGKRKREDEAPILEQRENRMNPLRCPVKFYEFYLSKCPESLRTRNDVFYLQPERSCIAESPLWYSVIPMDRSMLESMLNRILAVREIYEELGRPGEEDLD [ZMYM3]”: in the series with HeLa Kyoto [1], the “solubility in G1/S (log2)” value was -0.523. In addition, the melting temperature with HeLa Kyoto [2] (cell cycle stage: G1/S) came to 49.3 °C; with HeLa Kyoto [2] (cell cycle stage: mitosis), 50.6 °C. For the same sequence, the “solubility change mitosis (log2)” value with HeLa Kyoto [3] was 0.169. Also, the thermal stability score with HeLa Kyoto [4] (setting [5]) stood at 0.311; in the series with HeLa Kyoto [4] (cell cycle stage: mitosis), 1.4.
For “MDRNPSPPPPGRDKEEEEEVAGGDCIGSTVYSKHWLFGVLSGLIQIVSPENTKSSSDDEEQLTELDEEMENEICRVWDMSMDEDVALFLQEFNAPDIFMGVLAKSKCPRLREICVGILGNMACFQEICVSISSDKNLGQVLLHCLYDSDPPTLLETSRLLLTCLSQAEVASVWVERIQEHPAIYDSICFIMSSSTNVDLLVKVGEVVDKLFDLDEKLMLEWVRNGAAQPLDQPQEESEEQPVFRLVPCILEAAKQVRSENPEWLDVYMHILQLLTTVDDGIQAIVHCPDTGKDIWNLLFDLVCHEFCQSDDPPIILQEQKTVLASVFSVLSAIYASQTEQEYLKIEKVDLPLIDSLIRVLQNMEQCQKKPENSAESNTEETKRTDLTQDDFHLKILKDILCEFLSNIFQALTKETVAQGVKEGQLSKQKCSSAFQNLLPFYSPVVEDFIKILREVDKALADDLEKNFPSLKVQT [SAAL1]”, the “solubility in G1/S (log2)” value in the series on HeLa Kyoto [1] turned out to be 0.294. Moreover, the melting temperature is 52.3 °C in the series on HeLa Kyoto [2] (cell cycle stage: G1/S) and 50.6 °C in the series on HeLa Kyoto [2] (cell cycle stage: mitosis). In the series on HeLa Kyoto [3], the “solubility change mitosis (log2)” value was determined as 0.00183. Further, the thermal stability score turned out to be 0.137 in the series with HeLa Kyoto [4] (setting [5]) and 0.212 in the series on HeLa Kyoto [4] (cell cycle stage: mitosis).

The values above are taken from the supplement of paper PMC5998384.
